Literature values as cited in PMC6640714.
pKd: −log10 of the molar value.

Target: FcγRIa (Homo sapiens) (UniProt P12314)
Assay: given as Ka

Chain of IgG4 (P01861 whole entry): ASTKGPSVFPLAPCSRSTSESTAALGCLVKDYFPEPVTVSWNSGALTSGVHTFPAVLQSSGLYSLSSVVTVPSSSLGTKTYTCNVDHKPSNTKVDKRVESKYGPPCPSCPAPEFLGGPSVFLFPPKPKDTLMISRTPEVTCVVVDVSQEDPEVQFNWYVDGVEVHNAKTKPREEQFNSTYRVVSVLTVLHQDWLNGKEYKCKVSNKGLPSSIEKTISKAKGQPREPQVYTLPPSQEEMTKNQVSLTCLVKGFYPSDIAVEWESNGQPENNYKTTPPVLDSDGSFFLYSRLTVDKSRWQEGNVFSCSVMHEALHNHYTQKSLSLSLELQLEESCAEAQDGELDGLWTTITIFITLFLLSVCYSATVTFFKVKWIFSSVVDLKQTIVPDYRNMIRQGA
Chain of FcγRIa (Homo sapiens) (P12314 16-374): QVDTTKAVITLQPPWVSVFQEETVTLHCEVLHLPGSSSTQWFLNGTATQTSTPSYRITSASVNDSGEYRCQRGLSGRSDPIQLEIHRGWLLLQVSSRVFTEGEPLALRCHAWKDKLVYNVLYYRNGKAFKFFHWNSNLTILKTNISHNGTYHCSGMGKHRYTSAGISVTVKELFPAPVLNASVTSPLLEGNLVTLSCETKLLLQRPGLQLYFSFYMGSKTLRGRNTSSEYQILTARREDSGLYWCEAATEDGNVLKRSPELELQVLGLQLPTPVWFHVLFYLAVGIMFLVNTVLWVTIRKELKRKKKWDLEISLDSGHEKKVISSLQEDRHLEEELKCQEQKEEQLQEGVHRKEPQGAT

Substance: IgG4 (from UniProt P01861)
- pKd: 7.53
